The source of these data is US20250263472A1 (IGGENIX, published 2025).

This test concerns the target T1, Natural Ara h 6 (InBio) (peanut, UniProt Q647G9 22-145).
T1 sequence (looked up): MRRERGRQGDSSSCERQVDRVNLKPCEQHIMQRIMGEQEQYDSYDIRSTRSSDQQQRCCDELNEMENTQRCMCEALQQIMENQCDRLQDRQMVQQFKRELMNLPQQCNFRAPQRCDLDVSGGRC
The test is described as follows: told in the description of Combination-1; assay not named.

B1: Molecule-1a (bispecific antibody, human IgG4 S228P, kappa)
heavy: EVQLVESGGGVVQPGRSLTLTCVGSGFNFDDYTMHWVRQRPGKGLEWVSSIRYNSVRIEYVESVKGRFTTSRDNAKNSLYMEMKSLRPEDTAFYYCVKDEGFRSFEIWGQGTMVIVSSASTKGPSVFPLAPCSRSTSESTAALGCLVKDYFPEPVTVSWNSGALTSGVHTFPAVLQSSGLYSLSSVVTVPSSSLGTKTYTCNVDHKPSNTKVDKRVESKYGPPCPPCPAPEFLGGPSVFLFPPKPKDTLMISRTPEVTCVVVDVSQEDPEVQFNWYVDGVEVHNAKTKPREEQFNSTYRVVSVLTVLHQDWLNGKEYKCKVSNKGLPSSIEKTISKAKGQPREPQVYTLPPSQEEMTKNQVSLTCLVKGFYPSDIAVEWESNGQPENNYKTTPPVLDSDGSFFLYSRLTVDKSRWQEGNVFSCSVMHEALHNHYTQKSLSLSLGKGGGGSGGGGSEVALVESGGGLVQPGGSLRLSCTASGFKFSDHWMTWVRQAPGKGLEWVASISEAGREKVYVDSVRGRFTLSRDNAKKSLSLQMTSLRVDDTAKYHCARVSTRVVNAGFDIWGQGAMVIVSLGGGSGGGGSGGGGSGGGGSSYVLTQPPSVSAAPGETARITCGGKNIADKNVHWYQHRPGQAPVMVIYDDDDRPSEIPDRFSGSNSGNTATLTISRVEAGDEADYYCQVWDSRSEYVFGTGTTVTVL
light: DIVMTQSPLSLPVTPGEPASISCRSTQSLEHSNGYHYLDWYVQKAGQSPQLLISLGSKRASGVPDRFSGSVSGTDFTLKISRVEAEDVGVYYCMQALQTWTFGQGTKVEIKRTVAAPSVFIFPPSDEQLKSGTASVVCLLNNFYPREAKVQWKVDNALQSGNSQESVTEQDSKDSTYSLSSTLTLSKADYEKHKVYACEVTHQGLSSPVTKSFNRGEC
notes: CMC liabilities removed; also called Molecule-1 (of Combination-1)
As for B1, the binding result was “binds”.
